The results in this text go back to the supplement of paper PMC5998384.

For data set [1], the system named is HeLa Kyoto. The experiment in a line: thermal stability score vs G1/S (z-score of summed log2 fold changes over temperatures); higher = more thermally stable than in G1/S.
Data set [2] relates to HeLa Kyoto. The experiment in a line: melting temperature (median over replicates), in situ; higher = more thermally stable.
In data set [3] the test system is HeLa Kyoto. As to the kind of experiment: solubility change mitosis vs G1/S (difference of NP-40 vs SDS log2 ratios) (log2 ratio difference); higher = more soluble in mitosis.
Data set [4] concerns HeLa Kyoto. The experiment in a line: solubility in G1/S (NP-40 vs SDS abundance) (log2 ratio); higher = more soluble. The following applies: cell cycle stage: G1/S.
[5] abbreviates: cell cycle stage: early G1 (4.5 h after nocodazole release).
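Wherever melting temperature (median over replicates), in situ is given: HeLa Kyoto cells synchronized by double thymidine or nocodazole block, proteins quantified by TMT10plex mass spectrometry, three independent biological replicates.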
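Wherever solubility change mitosis vs G1/S (difference of NP-40 vs SDS log2 ratios) is given: synchronized HeLa Kyoto cells (double thymidine block for G1/S, nocodazole release for mitosis), protein amounts in NP-40 versus SDS lysates quantified by mass spectrometry, three biological replicates.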
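Wherever solubility in G1/S (NP-40 vs SDS abundance) is given: HeLa Kyoto cells arrested at G1/S by double thymidine block, proteins quantified by TMT10plex mass spectrometry in mild NP-40 versus SDS extracts, three biological replicates.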
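Wherever thermal stability score vs G1/S (z-score of summed log2 fold changes over temperatures) is given: synchronized HeLa Kyoto cells, proteins quantified by TMT10plex mass spectrometry, three biological replicates, mitosis taken 0.5 h after nocodazole release, G1/S directly after double thymidine block.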

For “MDIYDTQTLGVVVFGGFMVVSAIGIFLVSTFSMKETSYEEALANQRKEMAKTHHQKVEKKKKEKTVEKKGKTKKKEEKPNGKIPDHDPAPNVTVLLREPVRAPAVAVAPTPVQPPIIVAPVATVPAMPQEKLASSPKDKKKKEKKVAKVEPAVSSVVNSIQVLTSKAAILETAPKEVPMVVVPPVGAKGNTPATGTTQGKKAEGTQNQSKKAEGAPNQGRKAEGTPNQGKKTEGTPNQGKKAEGTPNQGKKAEGTPNQGKKAEGAQNQGKKVDTTPNQGKKVEGAPTQGRKAEGAQNQAKKVEGAQNQGKKAEGAQNQGKKGEGAQNQGKKAEGAQNQGKKAEGAQNQGKKAEGAQNQGKKAEGAQNQGKKAEGAQNQGKKAEGAQNQGKKVEGAQNQGKKAEGAQNQGKKAEGAQNQGKKAEGAQNQGKKAEGAQNQGKKAEGAQNQGKKAEGAQNQGKKAEGAQNQGKKVEGAQNQGKKAEGAQNQGKKAEGAQNQGKKAEGAQNQGQKGEGAQNQGKKTEGAQGKKAERSPNQGKKGEGAPIQGKKADSVANQGTKVEGITNQGKKAEGSPSEGKKAEGSPNQGKKADAAANQGKKTESASVQGRNTDVAQSPEAPKQEAPAKKKSGSKKKGEPGPPDADGPLYLPYKTLVSTVGSMVFNEGEAQRLIEILSEKAGIIQDTWHKATQKGDPVAILKRQLEEKEKLLATEQEDAAVAKSKLRELNKEMAAEKAKAAAGEAKVKKQLVAREQEITAVQARMQASYREHVKEVQQLQGKIRTLQEQLENGPNTQLARLQQENSILRDALNQATSQVESKQNAELAKLRQELSKVSKELVEKSEAVRQDEQQRKALEAKAAAFEKQVLQLQASHRESEEALQKRLDEVSRELCHTQSSHASLRADAEKAQEQQQQMAELHSKLQSSEAEVRSKCEELSGLHGQLQEARAENSQLTERIRSIEALLEAGQARDAQDVQASQAEADQQQTRLKELESQVSGLEKEAIELREAVEQQKVKNNDLREKNWKAMEALATAEQACKEKLLSLTQAKEESEKQLCLIEAQTMEALLALLPELSVLAQQNYTEWLQDLKEKGPTLLKHPPAPAEPSSDLASKLREAEETQSTLQAECDQYRSILAETEGMLRDLQKSVEEEEQVWRAKVGAAEEELQKSRVTVKHLEEIVEKLKGELESSDQVREHTSHLEAELEKHMAAASAECQNYAKEVAGLRQLLLESQSQLDAAKSEAQKQSDELALVRQQLSEMKSHVEDGDIAGAPASSPEAPPAEQDPVQLKTQLEWTEAILEDEQTQRQKLTAEFEEAQTSACRLQEELEKLRTAGPLESSETEEASQLKERLEKEKKLTSDLGRAATRLQELLKTTQEQLAREKDTVKKLQEQLEKAEDGSSSKEGTSV [RRBP1]”, the values for the thermal stability score in the data set on HeLa Kyoto [1] (setting [5]) and with HeLa Kyoto [1] (cell cycle stage: mitosis) were 2.64 and 7.14, respectively. In addition, the melting temperature in the data set on HeLa Kyoto [2] (cell cycle stage: G1/S) was found to be 53.2 °C; in the data set with HeLa Kyoto [2] (cell cycle stage: mitosis) it was 53.7 °C. Besides, the “solubility change mitosis (log2)” value in the data set on HeLa Kyoto [3] was determined as 0.448. Moreover, in the data set on HeLa Kyoto [4], the “solubility in G1/S (log2)” value worked out at 0.0657.

For the sequence “MATALSEEELDNEDYYSLLNVRREASSEELKAAYRRLCMLYHPDKHRDPELKSQAERLFNLVHQAYEVLSDPQTRAIYDIYGKRGLEMEGWEVVERRRTPAEIREEFERLQREREERRLQQRTNPKGTISVGVDATDLFDRYDEEYEDVSGSSFPQIEINKMHISQSIEAPLTATDTAILSGSLSTQNGNGGGSINFALRRVTSAKGWGELEFGAGDLQGPLFGLKLFRNLTPRCFVTTNCALQFSSRGIRPGLTTVLARNLDKNTVGYLQWRWGIQSAMNTSIVRDTKTSHFTVALQLGIPHSFALISYQHKFQDDDQTRVKGSLKAGFFGTVVEYGAERKISRHSVLGAAVSVGVPQGVSLKVKLNRASQTYFFPIHLTDQLLPSAMFYATVGPLVVYFAMHRLIIKPYLRAQKEKELEKQRESAATDVLQKKQEAESAVRLMQESVRRIIEAEESRMGLIIVNAWYGKFVNDKSRKSEKVKVIDVTVPLQCLVKDSKLILTEASKAGLPGFYDPCVGEEKNLKVLYQFRGVLHQVMVLDSEALRIPKQSHRIDTDG [DNAJC11]”, the thermal stability score is 0.0819 in the data set with HeLa Kyoto [1] (setting [5]) and -0.993 in the data set with HeLa Kyoto [1] (cell cycle stage: mitosis). The melting temperature with HeLa Kyoto [2] (cell cycle stage: G1/S) stood at 52.6 °C; in the data set with HeLa Kyoto [2] (cell cycle stage: mitosis), 52.3 °C. Moreover, in the data set with HeLa Kyoto [3], the “solubility change mitosis (log2)” value is -0.0355. For the same sequence, in the data set with HeLa Kyoto [4], the “solubility in G1/S (log2)” value is -0.172.

On to “MSLVAEAFVSQIAAAEPWPENATLYQQLKGEQILLSDNAASLAVQAFLQMCNLPIKVVCRANAEYMSPSGKVPFIHVGNQVVSELGPIVQFVKAKGHSLSDGLEEVQKAEMKAYMELVNNMLLTAELYLQWCDEATVGEITHARYGSPYPWPLNHILAYQKQWEVKRKMKAIGWGKKTLDQVLEDVDQCCQALSQRLGTQPYFFNKQPTELDALVFGHLYTILTTQLTNDELSEKVKNYSNLLAFCRRIEQHYFEDRGKGRLS [MTX2]”, for which the thermal stability score with HeLa Kyoto [1] (setting [5]) is -0.339; in the data set with HeLa Kyoto [1] (cell cycle stage: mitosis), -0.187. Further, the melting temperature in the data set with HeLa Kyoto [2] (cell cycle stage: G1/S) stood at 51.4 °C; in the data set on HeLa Kyoto [2] (cell cycle stage: mitosis), 52.2 °C. The “solubility change mitosis (log2)” value with HeLa Kyoto [3] came out at 0.0491. The “solubility in G1/S (log2)” value in the data set on HeLa Kyoto [4] was 0.186.

In the case of “MTELRQRVAHEPVAPPEDKESESEAKVDGETASDSESRAESAPLPVSADDTPEVLNRALSNLSSRWKNWWVRGILTLAMIAFFFIIIYLGPMVLMIIVMCVQIKCFHEIITIGYNVYHSYDLPWFRTLSWYFLLCVNYFFYGETVTDYFFTLVQREEPLRILSKYHRFISFTLYLIGFCMFVLSLVKKHYRLQFYMFGWTHVTLLIVVTQSHLVIHNLFEGMIWFIVPISCVICNDIMAYMFGFFFGRTPLIKLSPKKTWEGFIGGFFATVVFGLLLSYVMSGYRCFVCPVEYNNDTNSFTVDCEPSDLFRLQEYNIPGVIQSVIGWKTVRMYPFQIHSIALSTFASLIGPFGGFFASGFKRAFKIKDFANTIPGHGGIMDRFDCQYLMATFVNVYIASFIRGPNPSKLIQQFLTLRPDQQLHIFNTLRSHLIDKGMLTSTTEDE [CDS2]”, the values for the thermal stability score in the data set with HeLa Kyoto [1] (setting [5]) and in the data set on HeLa Kyoto [1] (cell cycle stage: mitosis) were -3.65 and -6.01, respectively. Besides, the melting temperature in the data set with HeLa Kyoto [2] (cell cycle stage: G1/S) stood at 57.3 °C; with HeLa Kyoto [2] (cell cycle stage: mitosis), 56 °C. Also, in the data set with HeLa Kyoto [3], the “solubility change mitosis (log2)” value was -0.168. Moreover, the “solubility in G1/S (log2)” value in the data set on HeLa Kyoto [4] was -0.102.
